Experimental findings from patent US7655759 (VRIJE UNIVERSITEIT BRUSSEL, dated 2010) are described below.

The assay addresses tetanus toxoid (RIT, Smith Kline Beecham) (Clostridium tetani, UniProt P04958 2-1315). Nature of the assay: ELISA by the procedure of Friguet et al. In general terms: In an ELISA, binding on a coated surface is turned into a signal by an enzyme label.

Sequence of tetanus toxoid (RIT, Smith Kline Beecham) (P04958 2-457 limits assumed, chain 1 of 2): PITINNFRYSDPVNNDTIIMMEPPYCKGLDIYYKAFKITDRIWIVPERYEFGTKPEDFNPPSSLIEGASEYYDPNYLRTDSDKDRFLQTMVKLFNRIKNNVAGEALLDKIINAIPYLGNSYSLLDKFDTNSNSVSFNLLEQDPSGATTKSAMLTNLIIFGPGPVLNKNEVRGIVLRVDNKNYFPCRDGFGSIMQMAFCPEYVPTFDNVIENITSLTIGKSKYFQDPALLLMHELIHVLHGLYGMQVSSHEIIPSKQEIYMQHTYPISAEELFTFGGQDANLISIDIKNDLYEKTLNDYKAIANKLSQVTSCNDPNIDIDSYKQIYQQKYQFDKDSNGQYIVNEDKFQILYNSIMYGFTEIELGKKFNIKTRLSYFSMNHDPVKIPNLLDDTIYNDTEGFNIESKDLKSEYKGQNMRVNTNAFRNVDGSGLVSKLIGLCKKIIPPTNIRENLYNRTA
Sequence of tetanus toxoid (RIT, Smith Kline Beecham) (P04958 458-1315 limits assumed, chain 2 of 2): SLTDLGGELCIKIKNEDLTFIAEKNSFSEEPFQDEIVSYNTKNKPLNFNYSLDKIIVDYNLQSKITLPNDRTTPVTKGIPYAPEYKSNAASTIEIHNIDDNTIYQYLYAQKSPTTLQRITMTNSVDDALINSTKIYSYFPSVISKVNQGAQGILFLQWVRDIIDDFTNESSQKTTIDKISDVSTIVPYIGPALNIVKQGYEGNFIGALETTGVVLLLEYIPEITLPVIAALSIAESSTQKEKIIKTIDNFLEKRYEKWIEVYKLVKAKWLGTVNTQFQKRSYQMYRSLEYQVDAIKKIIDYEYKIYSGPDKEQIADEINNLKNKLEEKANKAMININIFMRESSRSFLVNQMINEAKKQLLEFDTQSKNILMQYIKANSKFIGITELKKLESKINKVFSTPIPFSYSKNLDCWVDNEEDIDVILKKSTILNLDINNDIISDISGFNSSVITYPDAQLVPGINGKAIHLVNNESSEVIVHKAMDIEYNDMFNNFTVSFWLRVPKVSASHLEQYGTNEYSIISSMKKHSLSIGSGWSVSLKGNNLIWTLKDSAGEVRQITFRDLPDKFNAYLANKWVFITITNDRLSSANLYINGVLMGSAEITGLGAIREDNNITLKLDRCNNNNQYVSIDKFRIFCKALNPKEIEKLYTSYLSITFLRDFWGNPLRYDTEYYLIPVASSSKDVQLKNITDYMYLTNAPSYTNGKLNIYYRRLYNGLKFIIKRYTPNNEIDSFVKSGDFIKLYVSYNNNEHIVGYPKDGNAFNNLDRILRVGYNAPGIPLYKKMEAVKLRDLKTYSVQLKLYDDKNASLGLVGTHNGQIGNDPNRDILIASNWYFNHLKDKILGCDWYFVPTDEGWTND

B1: camel VHH αTT2 (anti-tetanus toxoid) (VHH)
VHH: EVQLQASGGGSVQAGGSLRLSCTAANYAFDSKTVGWFRQVPGKEREGVAGISSGGSTTAYSDSVKGRYTVSLENAKNTVYLLIDNLQPEDTAIYYCAGVSGWRGRQWLLLAETYRFWGQGTQVTVSS
B1 showed a Ka of 2e+07 M⁻¹.

B2: camel VHH αTT1 (anti-tetanus toxoid) (VHH)
VHH: EVQLQASGGGSVQAGGSLRLSCAASGGQTFDSYAMAWFRQAPGKECELVSSIIGDDNRNYADSVKGRFTISRDNAKNTVYLQMDRLNPEDTAVYYCAQLGSARSAMYCAGQGTQVTVSS
Take B2: the Ka stood at 6e+07 M⁻¹.
